We go through 14 molecules from US20090130105A1 (Biogen, published 2009).

Assay [1] concerns the target T1, human IGF-1R(1-903)-Fc (human, UniProt P08069 31-933).
T1 construct: also called hIGF-1R-Fc; SDWT; not shown: human IgG1 Fc, C-terminal tag
Put plainly: competition ELISA: antibody diluted in human IGF-2 His solution, added to biotinylated hIGF-1R-Fc on streptavidin plates, bound IGF-2 His detected with anti-His-HRP (blocked ligand: IGF-2 His). Here is the method:
(§1) hIGF-1R-Fc was biotinylated using EZ-Link Sulfo-NHS-LC-Biotin according to the protocol provided by the manufacturer (Pierce Cat. No. 21335). Biotinylated human IGF-1R Fc (NB12453-9) at 5 μg/ml was added to the wells of SigmaScreen streptavidin-coated 96-well plates (Sigma, Cat. No. M5432-5EA) at 100 μL/well and incubated overnight at 2-8° C. The plates were then washed four times with 200 μL/well PBST. […] The dilutions were added to the plates in duplicate at 100 μL/well and the plates were incubated at RT for 1 hour. The plates were then washed four times with 200 μL/well PBST. An HRP-conjugated anti-Histag antibody (Penta-His HRP Conjugate, QIAGEN, Cat. No. 1014992) was diluted 1:1000 in PBST and added to plates at 100 μL/well, and the plates were incubated at RT for one hour. The plates were then washed four times with 200 μL/well PBST. SureBlue Reserve TMB Microwell Peroxidase Substrate (KPL, Cat. No. 53-00-01) was added to plates at 100 μL/well followed by 1% phosphoric acid at 100 μL/well once the desired reaction was observed. The absorbance of each well was determined at 450 nm, and the results were normalized and plotted against the log of antibody concentration.
For orientation: ELISA stands for enzyme-linked immunosorbent assay.

For assay [2], the target named is T2, hIGF-1R-Fc mutant SD103 (D461A, V462T) (human, UniProt P08069 31-933).
T2 construct: not shown: human IgG1 Fc, C-terminal tag
Put plainly: SPR, immobilized antibody. How it is done: Surface plasmon resonance (SPR) experiments were performed on a Biacore 3000 instrument set to 25° C. […] The antibody sensorchip surfaces were prepared by injecting each antibody (diluted 100 μg/mL in 10 mM Acetate, pH 4.0) over EDC/NHS-activated sensorchip surfaces according to the standard protocol of the manufacturer. […] Both hIGF-1R-Fc and mIGF-1R-Fc proteins oligomerize due to the incorporation of two separate homodimeric regions (IGF-1R and IgG1-Fc). […] After, completion of the receptor-Fc loading step, flow rates were elevated to 5 μl/min. […] Dissociation was measured for 7 minutes after the antibody injections were complete. Finally, the flow rate was elevated to 30 μL/min and the chip surfaces were regenerated by 2×10 μL injections of 0.1 M glycine, pH 2.

The target of assay [3] is T1, human IGF-1R(1-903)-Fc. Put plainly: competition ELISA: antibody diluted in 320 nM human IGF-1 His, added to biotinylated hIGF-1R-Fc on streptavidin plates, bound IGF-1 His detected with anti-His-HRP (blocked ligand: IGF-1 His). Here is the method:
as §1

In assay [4] the target is T1, human IGF-1R(1-903)-Fc. Put plainly: biolayer interferometry (Octet), IGF-1R Fc on Protein A sensors, scFv culture supernatant. Also on record: unit not given here. From the text:
Individual transformed colonies were picked into deep-well 96 well dishes and processed for screening as described above. […] For off-rate analyses IGF-1R Fc was immobilized onto the surface of Protein A biosensors. […] ScFvs were allowed to bind to immobilized IGF-1R Fc for 300-seconds. Off-rate was subsequently assayed for 600 seconds.
On the technique in general: In BLI a coated tip is dipped into the sample, and binding shifts an interference pattern.

Substitutions are numbered along the chain they refer to. In names and notes the source's numbering stands.

T1 sequence (P08069 31-933): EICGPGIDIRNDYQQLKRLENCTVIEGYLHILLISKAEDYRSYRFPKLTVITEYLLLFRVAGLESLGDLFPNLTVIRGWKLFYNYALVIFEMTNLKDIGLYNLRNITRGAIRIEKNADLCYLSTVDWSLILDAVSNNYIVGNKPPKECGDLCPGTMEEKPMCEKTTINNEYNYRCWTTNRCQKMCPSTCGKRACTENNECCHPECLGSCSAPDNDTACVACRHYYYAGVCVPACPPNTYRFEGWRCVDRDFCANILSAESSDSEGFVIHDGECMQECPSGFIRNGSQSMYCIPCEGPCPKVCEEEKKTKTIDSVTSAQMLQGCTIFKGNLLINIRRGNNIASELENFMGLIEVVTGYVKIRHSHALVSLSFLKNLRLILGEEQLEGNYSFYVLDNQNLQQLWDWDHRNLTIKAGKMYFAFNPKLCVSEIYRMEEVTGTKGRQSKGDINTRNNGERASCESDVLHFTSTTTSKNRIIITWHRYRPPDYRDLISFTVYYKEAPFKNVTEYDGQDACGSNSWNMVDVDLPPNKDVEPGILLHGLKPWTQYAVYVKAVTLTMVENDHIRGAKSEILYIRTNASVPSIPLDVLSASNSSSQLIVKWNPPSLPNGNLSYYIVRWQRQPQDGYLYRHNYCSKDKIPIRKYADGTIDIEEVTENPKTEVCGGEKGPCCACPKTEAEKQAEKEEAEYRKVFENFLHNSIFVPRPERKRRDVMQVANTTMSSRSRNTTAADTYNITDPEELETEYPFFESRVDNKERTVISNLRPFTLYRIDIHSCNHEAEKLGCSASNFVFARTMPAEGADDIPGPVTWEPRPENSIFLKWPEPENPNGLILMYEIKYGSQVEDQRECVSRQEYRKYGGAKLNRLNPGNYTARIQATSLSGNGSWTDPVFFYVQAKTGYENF
T2 sequence (P08069 31-933 D491A/V492T): as the sequence (P08069 31-933) above, with D461A, V462T counted along it

B1: M14-C03 antibody (antibody, V domains shown)
VH: EVQLLESGGGLVQPGGSLRLSCAASGFTFSKYMMSWVRQAPGKGLEWVSYISPSGGLTWYADSVKGRFTISRDNSKNTLYLQMNSLRAEDTAVYYCARDGARGYGMDVWGQGTTVTVSS
VL: DIQMTQSPATLSLSPGERATLSCRASQSVSSYLAWYQQKPGQAPRLLIYDASNRATGIPARFSGSGSGTDFTLTISSLEPEDFAVYYCQQRSNWPPEVTFGPGTKVDIK
notes: Fully human full-length antibody (ATCC PTA-7445); also called M14.C03.G4.P.agly
Turning to B1, the “IC50 (read off the curve)” value is roughly 1 nM with human IGF-1R(1-903)-Fc [1] and roughly 5 nM with human IGF-1R(1-903)-Fc [3]. For the same molecule, the binding result in assay [2] was “no binding”.

B2: MJF034, C06 (VL/GS3/VH) scFv with VL A51G (scFv)
scFv: DIQMTQSPLSLSASVGDRVTITCQASRDIRNYLNWYQQKPGKAPKLLIYDGSSLQTGVPSRFGGSGSGTDFSFTIGSLQPEDIATYYCQQFDSLPHTFGQGTKLEIKGGGGSGGGGSGGGGSEVQLLESGGGLVQPGGSLRLSCAASGFTFSIYRMQWVRQAPGKGLEWVSGISPSGGTTWYADSVKGRFTISRDNSKNTLYLQMNSLRAEDTAVYYCARWSGGSGYAFDIWGQGTMVTVSSDDDKSFLEQKLISEEDLNSAVDHHHHHH
notes: Kabat positions
Take B2: the “Kd (1/sec), off-rate as tabulated (XWU092 = 1.00)” value (“Kd (1/sec), off-rate as tabulated” for short) in the assay with human IGF-1R(1-903)-Fc [4] came to 0.81.

B3: MJF039, C06 (VL/GS3/VH) scFv with VL T20R, R30N, G63S, S72N (scFv)
scFv: B2 scFv with T20R, R30N, G51A, G63S, S72N
notes: Kabat positions
Regarding B3, the “Kd (1/sec), off-rate as tabulated” value in the assay with human IGF-1R(1-903)-Fc [4] stood at 0.56.

B4: MJF048, C06 (VL/GS3/VH) scFv with VH R83K (scFv, name in Kabat numbering)
scFv: B2 scFv with G51A, R209K
notes: Kabat positions
Turning to B4, the “Kd (1/sec), off-rate as tabulated” value with human IGF-1R(1-903)-Fc [4] stood at 1.37.

B5: MJF049, C06 (VL/GS3/VH) scFv with VH R83T (scFv, name in Kabat numbering)
scFv: B2 scFv with G51A, R209T
notes: Kabat positions
On to B5, for which, in the assay with human IGF-1R(1-903)-Fc [4], the “Kd (1/sec), off-rate as tabulated” value was 1.41.

B6: MJF047, C06 (VL/GS3/VH) scFv with VL I83G (scFv)
scFv: B2 scFv with G51A, I83G
notes: Kabat positions
As for B6, the “Kd (1/sec), off-rate as tabulated” value with human IGF-1R(1-903)-Fc [4] was found to be 1.44.

B7: MJF035, C06 (VL/GS3/VH) scFv with VL S72N (scFv)
scFv: B2 scFv with G51A, S72N
notes: Kabat positions
Take B7: the “Kd (1/sec), off-rate as tabulated” value with human IGF-1R(1-903)-Fc [4] stood at 0.54.

B8: MJF043, C06 (VL/GS3/VH) scFv with VL I83D (scFv)
scFv: B2 scFv with G51A, I83D
notes: Kabat positions
For B8, the “Kd (1/sec), off-rate as tabulated” value with human IGF-1R(1-903)-Fc [4] came to 1.12.

B9: MJF038, C06 (VL/GS3/VH) scFv with VL G63S, S72N (scFv)
scFv: B2 scFv with G51A, G63S, S72N
notes: Kabat positions
For B9, in the assay with human IGF-1R(1-903)-Fc [4], the “Kd (1/sec), off-rate as tabulated” value was found to be 0.76.

B10: MJF042, C06 (VL/GS3/VH) scFv with VL S77G, I83G (scFv)
scFv: B2 scFv with G51A, S77G, I83G
notes: Kabat positions
Regarding B10, the “Kd (1/sec), off-rate as tabulated” value with human IGF-1R(1-903)-Fc [4] was 0.55.

B11: MJF037, C06 (VL/GS3/VH) scFv with VL S72Y (scFv)
scFv: B2 scFv with G51A, S72Y
notes: Kabat positions
Turning to B11, the “Kd (1/sec), off-rate as tabulated” value with human IGF-1R(1-903)-Fc [4] came out at 0.76.

B12: MJF051, C06 (VL/GS3/VH) scFv with VL S77G, I83Q (scFv)
scFv: B2 scFv with G51A, S77G, I83Q
notes: Kabat positions
With B12, the “Kd (1/sec), off-rate as tabulated” value in the assay with human IGF-1R(1-903)-Fc [4] worked out at 1.1.

B13: MJF040, C06 (VL/GS3/VH) scFv with VL I83M (scFv)
scFv: B2 scFv with G51A, I83M
notes: Kabat positions
As for B13, the “Kd (1/sec), off-rate as tabulated” value in the assay with human IGF-1R(1-903)-Fc [4] turned out to be 0.76.

B14: MJF050, C06 (VL/GS3/VH) scFv with VH T110V (scFv, name in Kabat numbering)
scFv: B2 scFv with G51A, T239V
notes: Kabat positions
Turning to B14, in the assay with human IGF-1R(1-903)-Fc [4], the “Kd (1/sec), off-rate as tabulated” value turned out to be 1.68.
